According to patent US20120028880A1, “VEGFR-1/NRP-1 TARGETING PEPTIDES” (priority 2007, published 2012):
Square brackets hold non-standard residues; d marks the D form. Ends that are not written are not given here.

Legend:
[1] = target: VEGFR-1; experiment: competition of CPQPRPLC phage binding to immobilized VEGFR-1 by soluble peptide
[2] = target: NRP-1; experiment: competition of CPQPRPLC phage binding to immobilized NRP-1 by soluble peptide
Sequence of NRP-1 (O14786 22-856): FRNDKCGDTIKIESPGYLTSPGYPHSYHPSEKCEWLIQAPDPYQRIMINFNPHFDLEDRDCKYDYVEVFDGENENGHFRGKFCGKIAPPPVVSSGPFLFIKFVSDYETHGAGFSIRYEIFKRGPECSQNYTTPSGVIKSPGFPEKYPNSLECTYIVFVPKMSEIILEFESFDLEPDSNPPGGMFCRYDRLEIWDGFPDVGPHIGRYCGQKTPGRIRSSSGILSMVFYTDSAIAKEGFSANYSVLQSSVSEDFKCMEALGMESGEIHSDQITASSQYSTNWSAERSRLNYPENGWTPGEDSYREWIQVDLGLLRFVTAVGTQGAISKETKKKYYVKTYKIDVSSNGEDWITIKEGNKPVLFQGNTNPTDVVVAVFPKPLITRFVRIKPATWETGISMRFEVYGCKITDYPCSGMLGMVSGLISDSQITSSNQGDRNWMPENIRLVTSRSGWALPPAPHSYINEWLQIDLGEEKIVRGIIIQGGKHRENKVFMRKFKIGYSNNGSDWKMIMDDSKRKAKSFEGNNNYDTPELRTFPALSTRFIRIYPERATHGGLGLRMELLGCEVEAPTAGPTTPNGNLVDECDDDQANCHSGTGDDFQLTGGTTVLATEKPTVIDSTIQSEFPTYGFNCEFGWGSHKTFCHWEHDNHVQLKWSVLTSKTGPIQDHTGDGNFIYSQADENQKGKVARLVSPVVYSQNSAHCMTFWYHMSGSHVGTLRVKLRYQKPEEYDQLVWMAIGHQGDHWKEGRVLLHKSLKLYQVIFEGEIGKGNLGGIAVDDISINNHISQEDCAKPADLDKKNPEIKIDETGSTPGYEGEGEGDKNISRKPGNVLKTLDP

Sequence of VEGFR-1 (P17948 27-758): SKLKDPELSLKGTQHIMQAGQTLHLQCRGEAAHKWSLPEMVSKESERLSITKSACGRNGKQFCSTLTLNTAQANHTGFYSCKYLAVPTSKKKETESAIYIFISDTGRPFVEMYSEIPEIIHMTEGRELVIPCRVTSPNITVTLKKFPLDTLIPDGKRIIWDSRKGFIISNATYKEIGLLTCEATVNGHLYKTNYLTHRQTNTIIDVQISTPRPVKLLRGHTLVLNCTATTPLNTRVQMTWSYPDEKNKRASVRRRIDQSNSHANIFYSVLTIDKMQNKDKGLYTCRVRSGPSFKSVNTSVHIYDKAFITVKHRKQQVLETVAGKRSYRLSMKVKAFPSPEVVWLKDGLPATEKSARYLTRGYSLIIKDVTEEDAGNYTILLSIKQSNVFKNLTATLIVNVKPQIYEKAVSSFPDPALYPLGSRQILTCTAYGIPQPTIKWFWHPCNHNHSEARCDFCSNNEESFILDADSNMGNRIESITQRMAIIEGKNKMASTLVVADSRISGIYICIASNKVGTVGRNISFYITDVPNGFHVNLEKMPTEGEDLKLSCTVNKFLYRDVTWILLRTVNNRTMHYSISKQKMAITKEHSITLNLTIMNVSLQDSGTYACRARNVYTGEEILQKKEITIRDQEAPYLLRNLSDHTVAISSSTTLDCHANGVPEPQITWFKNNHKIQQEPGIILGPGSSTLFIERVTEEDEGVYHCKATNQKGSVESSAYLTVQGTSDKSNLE

## [dL]-[dP]-[dR]
[1]
  IC50: 1 to 10 pM
[2]
  IC50: 1 to 10 pM
